In article PMC7883291, “Selective cross‐linking of coinciding protein assemblies by in‐gel cross‐linking mass spectrometry” (The EMBO Journal, 2021):
“And” between values parts separate entries of the source, which are not always exact repeats. Equal values may be shown once.

Target: T1, Escherichia coli GroEL chaperone (Escherichia coli, UniProt P0A6F5 2-548)
T1 construct: GroEL chaperonin, Escherichia coli; monomer band at 57 kDa, native 14-mer of 800 kDa; also called 14-mer GroEL; source: expressed and purified as previously described; copies: 14
Test: native gel or EMSA; BN-PAGE after incubation of unfolded gp23 (11.4 µM) with GroEL (0.8 µM) in 50 mM Tris pH 7.5, 50 mM KCl, MgCl2, 1 mM ADP, 10 min at RT; subunits in the bands quantified by iBAQ
Conditions: both partners purified

T1 sequence (P0A6F5 2-548): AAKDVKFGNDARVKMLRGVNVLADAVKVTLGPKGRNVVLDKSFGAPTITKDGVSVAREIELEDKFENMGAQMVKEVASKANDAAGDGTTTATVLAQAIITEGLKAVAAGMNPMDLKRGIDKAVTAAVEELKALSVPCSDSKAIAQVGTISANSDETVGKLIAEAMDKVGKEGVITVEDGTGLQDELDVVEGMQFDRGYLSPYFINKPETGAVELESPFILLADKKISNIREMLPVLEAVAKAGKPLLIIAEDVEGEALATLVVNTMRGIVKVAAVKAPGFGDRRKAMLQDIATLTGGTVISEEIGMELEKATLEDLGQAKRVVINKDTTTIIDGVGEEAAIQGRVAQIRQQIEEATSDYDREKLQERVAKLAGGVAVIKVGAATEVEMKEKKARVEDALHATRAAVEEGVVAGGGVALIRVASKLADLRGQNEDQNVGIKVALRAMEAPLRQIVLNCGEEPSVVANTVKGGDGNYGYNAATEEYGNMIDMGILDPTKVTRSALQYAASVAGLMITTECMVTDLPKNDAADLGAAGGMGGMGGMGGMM

B1: bacteriophage T4 capsid protein (gp23) (natural protein, UniProt P04535 1-521, looked up)
chain: MTIKTKAELLNKWKPLLEGEGLPEIANSKQAIIAKIFENQEKDFQTAPEYKDEKIAQAFGSFLTEAEIGGDHGYNATNIAAGQTSGAVTQIGPAVMGMVRRAIPNLIAFDICGVQPMNSPTGQVFALRAVYGKDPVAAGAKEAFHPMYGPDAMFSGQGAAKKFPALAASTQTTVGDIYTHFFQETGTVYLQASVQVTIDAGATDAAKLDAEIKKQMEAGALVEIAEGMATSIAELQEGFNGSTDNPWNEMGFRIDKQVIEAKSRQLKAAYSIELAQDLRAVHGMDADAELSGILATEIMLEINREVVDWINYSAQVGKSGMTLTPGSKAGVFDFQDPIDIRGARWAGESFKALLFQIDKEAVEIARQTGRGEGNFIIASRNVVNVLASVDTGISYAAQGLATGFSTDTTKSVFAGVLGGKYRVYIDQYAKQDYFTVGYKGPNEMDAGIYYAPYVALTPLRGSDPKNFQPVMGFKTRYGIGINPFAESAAQAPASRIQSGMPSILNSLGKNAYFRRVYVKGI
notes: major capsid protein gp23 of bacteriophage T4, printed size 56 kDa; Used as an unfolded substrate of GroEL; also called major capsid protein gp23; unfolded gp23; source: expressed and purified as previously described; unfolded in 8 M urea for one hour at RT
stoichiometry N: 1 and 2
